Assay results reported in patent US20070026475A1.

Biological target: 4G10 anti-phosphotyrosine monoclonal antibody (Upstate Biotechnology)
Test: fluorescence polarization competition; competitor of the fluorescent pp60c-src phosphopeptide

## unphosphorylated peptide (same sequence as the pp60c-src C-terminal phosphoregulatory peptide) (from UniProt P12931 524-536)
  total shift in polarization: < 10 mP
